Measured values: patent US20250320281A1

How the values were obtained:
Assay in all cases: cell-based or functional assay
[1] = target: HIV-1 Env of isolate MGRM-F1-018 (HIV-1)
[2] = target: HIV-1 Env of pseudovirus MGRM-AG-002 (subtype AG) (HIV-1)
[3] = target: HIV-1 Env of isolate MG RM-D-016 (HIV-1)
[4] = target: HIV-1 Env of isolate MGRM-F1-023 (HIV-1)
[5] = target: HIV-1 Env of isolate MGRM-F1-004 (HIV-1)
[6] = target: HIV-1 Env of isolate MGRM-F1-014 (HIV-1)
[7] = target: HIV-1 Env of pseudovirus MGRM-AG-012 (subtype AG) (HIV-1)
[8] = target: HIV-1 Env of isolate MG RM-D-018 (HIV-1)
[9] = target: HIV-1 Env of pseudovirus MGRM-AG-003 (subtype AG) (HIV-1)
[10] = target: HIV-1 Env of isolate MGRM-F1-016 (HIV-1)
[11] = target: HIV-1 Env of isolate MG RM-D-028 (HIV-1)
[12] = target: HIV-1 Env of pseudovirus MGRM-AG-001 (subtype AG) (HIV-1)
[13] = target: HIV-1 Env of isolate MGRM-F1-020 (HIV-1)
[14] = target: HIV-1 Env of pseudovirus MGRM-AG-008 (subtype AG) (HIV-1)
[15] = target: HIV-1 Env of isolate MGRM-F1-013 (HIV-1)
[16] = target: HIV-1 Env of isolate MG RM-D-019 (HIV-1)
[17] = target: HIV-1 Env of isolate MGRM-F1-012 (HIV-1)
[18] = target: HIV-1 Env of isolate MG RM-D-020 (HIV-1)
[19] = target: HIV-1 Env of isolate MGRM-F1-006 (HIV-1)
[20] = target: HIV-1 Env of isolate MG RM-D-022 (HIV-1)
[21] = target: HIV-1 Env of isolate MG RM-D-012 (HIV-1)
[22] = target: HIV-1 Env of isolate MGRM-F1-017 (HIV-1)
[23] = target: HIV-1 Env of isolate MG RM-D-024 (HIV-1)
[24] = target: HIV-1 Env of isolate MG RM-D-014 (HIV-1)
[25] = target: HIV-1 Env of isolate MG RM-D-026 (HIV-1)
[26] = target: HIV-1 Env of isolate MGRM-F1-010 (HIV-1)
[27] = target: HIV-1 Env of isolate MG RM-D-011 (HIV-1)
[28] = target: HIV-1 Env of pseudovirus MGRM-AE-007 (subtype AE) (HIV-1)
[29] = target: HIV-1 Env of pseudovirus MGRM-AE-008 (subtype AE) (HIV-1)
[30] = target: HIV-1 Env of isolate MG RM-D-013 (HIV-1)
[31] = target: HIV-1 Env of pseudovirus MGRM-AG-005 (subtype AG) (HIV-1)
[32] = target: HIV-1 Env of isolate MGRM-F1-022 (HIV-1)
[33] = target: HIV-1 Env of isolate MG RM-D-029 (HIV-1)
[34] = target: HIV-1 Env of pseudovirus MGRM-AG-011 (subtype AG) (HIV-1)
[35] = target: HIV-1 Env of pseudovirus MGRM-AG-013 (subtype AG) (HIV-1)
[36] = target: HIV-1 Env of isolate MGRM-F1-015 (HIV-1)
[37] = target: HIV-1 Env of isolate MGRM-F1-008 (HIV-1)
[38] = target: HIV-1 Env of isolate MG RM-D-021 (HIV-1)
[39] = target: HIV-1 Env of pseudovirus MGRM-AG-009 (subtype AG) (HIV-1)
[40] = target: HIV-1 Env of pseudovirus MGRM-AG-006 (subtype AG) (HIV-1)
[41] = target: HIV-1 Env of isolate MGRM-F1-021 (HIV-1)
[42] = target: HIV-1 Env of isolate MGRM-C-005 (HIV-1)

Sequence of PGT-141 (4964_G22; 4993_K13) (antibody) (VH): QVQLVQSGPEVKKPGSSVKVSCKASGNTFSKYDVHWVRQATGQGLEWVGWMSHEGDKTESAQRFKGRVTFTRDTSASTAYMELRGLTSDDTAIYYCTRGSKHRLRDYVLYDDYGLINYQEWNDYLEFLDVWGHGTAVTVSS
Sequence of PGT-141 (4964_G22; 4993_K13) (antibody) (VL): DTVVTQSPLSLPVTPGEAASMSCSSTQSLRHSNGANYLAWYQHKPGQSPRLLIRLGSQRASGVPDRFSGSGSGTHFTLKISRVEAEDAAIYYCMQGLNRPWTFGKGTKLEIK
Sequence of PGT-144 (4970_K22) (antibody) (VH): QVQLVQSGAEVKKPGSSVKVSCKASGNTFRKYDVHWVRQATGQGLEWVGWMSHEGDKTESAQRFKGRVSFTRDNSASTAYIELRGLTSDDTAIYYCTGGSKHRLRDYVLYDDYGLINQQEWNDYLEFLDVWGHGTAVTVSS
Sequence of PGT-144 (4970_K22) (antibody) (VL): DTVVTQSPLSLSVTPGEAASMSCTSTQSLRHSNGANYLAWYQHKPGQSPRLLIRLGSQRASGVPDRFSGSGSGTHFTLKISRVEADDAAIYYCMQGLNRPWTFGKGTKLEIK

PGT-144 (4970_K22) (antibody)
IC50 [1]: > 50 µg/mL
IC50, pseudovirus neutralization [2]: 7.78 µg/mL
IC50 [3]: > 50 µg/mL
IC50 [4]: 1.16 µg/mL
IC50 [5]: 0.105 µg/mL
IC50 [6]: 0.014 µg/mL
IC50, pseudovirus neutralization [7]: > 50 µg/mL
IC50 [8]: > 50 µg/mL
IC50, pseudovirus neutralization [9]: > 50 µg/mL
IC50 [10]: > 50 µg/mL
IC50 [11]: > 50 µg/mL
IC50, pseudovirus neutralization [12]: > 50 µg/mL
IC50 [13]: 8.93 µg/mL
IC50, pseudovirus neutralization [14]: > 50 µg/mL
IC50 [15]: 0.509 µg/mL
IC50 [16]: > 50 µg/mL
IC50 [17]: > 50 µg/mL
IC50 [18]: > 50 µg/mL
IC50 [19]: 20.6 µg/mL
IC50 [20]: > 50 µg/mL
IC50 [21]: > 50 µg/mL
IC50 [22]: > 50 µg/mL
IC50 [23]: > 50 µg/mL
IC50 [24]: 0.113 µg/mL
IC50 [25]: > 50 µg/mL
IC50 [26]: > 50 µg/mL
IC50 [27]: > 50 µg/mL
IC50, pseudovirus neutralization [28]: > 50 µg/mL
IC50, pseudovirus neutralization [29]: 3.55 µg/mL
IC50 [30]: > 50 µg/mL
IC50, pseudovirus neutralization [31]: > 50 µg/mL
IC50 [32]: 0.382 µg/mL
IC50 [33]: 0.459 µg/mL
IC50, pseudovirus neutralization [34]: 44.6 µg/mL
IC50, pseudovirus neutralization [35]: > 50 µg/mL
IC50 [36]: > 50 µg/mL
IC50 [37]: 0.507 µg/mL
IC50 [38]: > 50 µg/mL
IC50, pseudovirus neutralization [39]: > 50 µg/mL
IC50, pseudovirus neutralization [40]: > 50 µg/mL
IC50 [41]: > 50 µg/mL

PGT-141 (4964_G22; 4993_K13) (antibody)
IC50 [1]: 0.785 µg/mL
IC50, pseudovirus neutralization [2]: 0.049 µg/mL
IC50 [3]: > 50 µg/mL
IC50 [4]: 0.307 µg/mL
IC50 [5]: 0.021 µg/mL
IC50 [6]: 0.001 µg/mL
IC50, pseudovirus neutralization [7]: > 50 µg/mL
IC50 [8]: > 50 µg/mL
IC50, pseudovirus neutralization [9]: > 50 µg/mL
IC50 [10]: > 50 µg/mL
IC50 [11]: < 50 µg/mL
IC50, pseudovirus neutralization [12]: 18 µg/mL
IC50 [13]: 1.15 µg/mL
IC50, pseudovirus neutralization [14]: 19.2 µg/mL
IC50 [15]: 0.043 µg/mL
IC50 [16]: 1.66 µg/mL
IC50 [17]: > 50 µg/mL
IC50 [18]: > 50 µg/mL
IC50 [19]: 8.99 µg/mL
IC50 [20]: > 50 µg/mL
IC50 [21]: > 50 µg/mL
IC50 [22]: 30.8 µg/mL
IC50 [23]: > 50 µg/mL
IC50 [24]: 0.01 µg/mL
IC50 [25]: 32.5 µg/mL
IC50 [26]: > 50 µg/mL
IC50 [27]: > 50 µg/mL
IC50, pseudovirus neutralization [28]: 33.1 µg/mL
IC50, pseudovirus neutralization [29]: 0.101 µg/mL
IC50 [30]: 0.179 µg/mL
IC50, pseudovirus neutralization [31]: 0.497 µg/mL
IC50, pseudovirus neutralization [42]: 8.83 µg/mL
IC50 [32]: 0.114 µg/mL
IC50 [33]: 0.057 µg/mL
IC50, pseudovirus neutralization [34]: 0.118 µg/mL
IC50, pseudovirus neutralization [35]: > 50 µg/mL
IC50 [36]: > 50 µg/mL
IC50 [37]: 0.193 µg/mL
IC50 [38]: > 50 µg/mL
IC50, pseudovirus neutralization [39]: > 50 µg/mL
IC50, pseudovirus neutralization [40]: > 50 µg/mL
IC50 [41]: > 50 µg/mL
